Test results: doi:10.1101/2023.12.21.572875, “Structure of the human systemic RNAi defective transmembrane protein 1 (hSIDT1) reveals the conformational flexibility of its lipid binding domain” (bioRxiv, 2024)

Target: the molecule itself
Assay: cryo-EM structure; single-particle cryo-EM of purified hSIDT1-GFP at 1 mg/ml in 0.5% digitonin, 25 mM Tris-HCl pH 7.5, 200 mM NaCl, with 100 uM fluorinated octyl-maltoside; no cholesterol or analogues; blotted at 18°C; C2 symmetry imposed

B1: human systemic RNAi-defective transmembrane family member 1 (hSIDT1), full length, C-terminal GFP-Strep-tag-II fusion (natural protein, UniProt Q9NXL6 20-827, looked up)
chain: ASPGHPAKSPRQPPAPRRDPFDAARGADFDHVYSGVVNLSTENIYSFNYTSQPDQVTAVRVYVNSSSENLNYPVLVVVRQQKEVLSWQVPLLFQGLYQRSYNYQEVSRTLCPSEATNETGPLQQLIFVDVASMAPLGAQYKLLVTKLKHFQLRTNVAFHFTASPSQPQYFLYKFPKDVDSVIIKVVSEMAYPCSVVSVQNIMCPVYDLDHNVEFNGVYQSMTKKAAITLQKKDFPGEQFFVVFVIKPEDYACGGSFFIQEKENQTWNLQRKKNLEVTIVPSIKESVYVKSSLFSVFIFLSFYLGCLLVGFVHYLRFQRKSIDGSFGSNDGSGNMVASHPIAASTPEGSNYGTIDESSSSPGRQMSSSDGGPPGQSDTDSSVEESDFDTMPDIESDKNIIRTKMFLYLSDLSRKDRRIVSKKYKIYFWNIITIAVFYALPVIQLVITYQTVVNVTGNQDICYYNFLCAHPLGVLSAFNNILSNLGHVLLGFLFLLIVLRRDILHRRALEAKDIFAVEYGIPKHFGLFYAMGIALMMEGVLSACYHVCPNYSNFQFDTSFMYMIAGLCMLKLYQTRHPDINASAYSAYASFAVVIMVTVLGVVFGKNDVWFWVIFSAIHVLASLALSTQIYYMGRFKIDLGIFRRAAMVFYTDCIQQCSRPLYMDRMVLLVVGNLVNWSFALFGLIYRPRDFASYMLGIFICNLLLYLAFYIIMKLRSSEKVLPVPLFCIVATAVMWAAALYFFFQNLSSWEGTPAESREKNRECILLDFFDDHDIWHFLSATALFFSFLVLLTLDDDLDVVRRDQIPVF
modifications: lacks complex N-glycosylation; density for N-acetylglucosamine at the predicted N-glycosylation sites N57, N67, N83, N136, N282 (not modelled)
notes: human SIDT1 (systemic RNAi-defective transmembrane family member 1), full length, codon-optimized synthetic gene (GenScript); UniProt Q9NXL6 printed for the AlphaFold model used in model building; Homodimer with C2 symmetry; Not modelled in the structure: the first 40 residues, cytosolic loops CL1 and CL4, Q278-N286 and the C-terminal GFP; The native signal peptide may be removed in the mature …
stoichiometry N: 2
